± gives the standard deviation of the averaged measurements.
Tested on: Saccharomyces cerevisiae
Experiment: protein stability index of tFT-peptide fusion (C-terminal peptide) (PSI (0-1 scale)); higher = more stable (slower turnover)
Conditions: genetic background: wild type; temperature: 30 C
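Note: PSI is a weighted mean of sequencing reads over stability bins, variants kept only with over 10 reads, mCherry proximal and sfGFP distal, peptide attached via GGGS linker.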

| Sequence | protein stability index |
| --- | --- |
| MSRRSVFGAVFW | 0.663 ± 0.039 |
| DIDGKRLLGCWI | 0.6632 ± 0.00086 |
| NKKETRKQKTKK | 0.673 ± 0.017 |
| SPPCPFPTPACP | 0.7165 ± 0.002 |
| LQVTLALSAALP | 0.802 ± 0.079 |
| IQRLGTKNTNRI | 0.647 ± 0.039 |
| NPLKAGFLVVTT | 0.6508 ± 0.0032 |
| FSIRALGSLGVF | 0.693 ± 0.027 |
| PLDAPDTRVWEI | 0.738 ± 0.061 |
| IRYARSYDMSEC | 0.654 ± 0.04 |
| VIQKHAMGDALL | 0.699 ± 0.03 |
| PPLPPPPRSPPS | 0.7565 ± 0.0021 |
| SSPFPVPLSRPS | 0.6759 ± 0.0032 |
| GGGLAPADQVGV | 0.729 ± 0.043 |
| PPHPPPPAPLPS | 0.73 ± 0.029 |
| GGGGGCVGRLWG | 0.742 ± 0.026 |
| SQLERSNHGWVR | 0.651 ± 0.064 |
| SFPPPPFPPLFL | 0.722 ± 0.023 |
| RARHDGWRHLYE | 0.707 ± 0.055 |
| GKRETQVEEGAR | 0.765 ± 0.11 |
| KKNICIKVENSY | 0.676 ± 0.031 |
| GRERGTEKGESG | 0.631 ± 0.11 |
| PSVSPLFSSPPP | 0.719 ± 0.012 |
| FGSLMFCLLPLH | 0.6527 ± 0.0026 |

| Sequence | protein stability index |
| --- | --- |
| CQRDYLFKSRLP | 0.639 ± 0.069 |
| CLSLPFSLFPLM | 0.619 ± 0.068 |
| GDIILSFFNFSK | 0.666 ± 0.024 |
| CRLPLSTIRARP | 0.724 ± 0.047 |
| KKGPANEWKRGE | 0.685 ± 0.081 |
| DGGFAAPDVIGA | 0.682 ± 0.026 |
| RRAESRNEKQHS | 0.687 ± 0.017 |
| SRLPSPFPSPPL | 0.737 ± 0.019 |
| GLPTFLTDSSFW | 0.725 ± 0.039 |
| GVVRGEAGVIGR | 0.817 ± 0.087 |
| PPPLLPPTPLPP | 0.619 ± 0.0069 |
| PPPPPPVHPSSP | 0.728 ± 0.0081 |
| CQQIKKNKKIKN | 0.661 ± 0.0026 |
| IKSKERLKKRQS | 0.6679 ± 0.00067 |
| QVWLLRPAPARV | 0.598 ± 0.12 |
| KQKRQLPRKNET | 0.639 ± 0.0092 |
| VKEKRDLSNYNI | 0.677 ± 0.037 |
| FLPHSPSLPQLP | 0.67 ± 0.013 |
| QPRVEYSSYWAV | 0.644 ± 0.034 |
| EGRFRNGRAVSG | 0.673 ± 0.011 |
| FPPYHTSSGFDA | 0.733 ± 0.066 |
| MQQWSTKSPGVI | 0.651 ± 0.027 |
| VLTPLPWSRCSP | 0.7017 ± 0.0061 |
| SWAFAGGGAATG | 0.694 ± 0.011 |

| Sequence | protein stability index |
| --- | --- |
| KKLKQTRRKKEN | 0.7296 ± 0.0068 |
| TCRGGNPFRACC | 0.707 ± 0.054 |
| PHLWSLPHATTA | 0.684 ± 0.051 |
| EWNWRSVYGFGE | 0.748 ± 0.027 |
| RVPVSQHARTRN | 0.6744 ± 0.0055 |
| WPSCKVHSPSPS | 0.675 ± 0.016 |
| AAPRGRGRFAAA | 0.699 ± 0.024 |
| PPTPPLVPPTRH | 0.739 ± 0.016 |
| LTVVGGVVGKVG | 0.689 ± 0.037 |
| AGAGGGGWWGGV | 0.76 ± 0.054 |
| LRLTTNTGCTIS | 0.611 ± 0.023 |
| PRLPTSPVPHPP | 0.6473 ± 0.0033 |
| SPPPAPRPPLPP | 0.709 ± 0.041 |
| GGGRGGSTPALG | 0.667 ± 0.03 |
| SYSPRRRLNTPR | 0.699 ± 0.058 |
| GGVGGAGGRNRG | 0.674 ± 0.014 |
| KVDYIKKKNSRE | 0.7142 ± 0.0036 |
| LTHLPSLCVRRI | 0.647 ± 0.06 |
| GQQVDKMLWDEV | 0.715 ± 0.025 |
| HPSPLHLPSPPP | 0.675 ± 0.0076 |
| VCGGVWGGDNGG | 0.771 ± 0.049 |
| GDARLAIWSLVT | 0.512 ± 0.0098 |
| LYRRGTYFEGLI | 0.704 ± 0.012 |
| VVGRGGLICGRW | 0.625 ± 0.072 |

| Sequence | protein stability index |
| --- | --- |
| LPPPPSASPPRP | 0.794 ± 0.06 |
| LVRCPLGVPGAS | 0.7085 ± 0.0065 |
| RWHLCERFGGRV | 0.643 ± 0.1 |
| PMPRHVPRPTTP | 0.674 ± 0.06 |
| TGAGGPGPRNRK | 0.774 ± 0.064 |
| PAPAPPPPAVPL | 0.612 ± 0.018 |
| LRAVRDSLMSQC | 0.681 ± 0.033 |
| PPPPAFPPPLSP | 0.716 ± 0.067 |
| SFARPSFVRPFA | 0.694 ± 0.017 |
| LSTAWFYFSLLF | 0.635 ± 0.072 |
| APPFNPSRLSRP | 0.725 ± 0.066 |
| LLQLLGGFVFSA | 0.67 ± 0.018 |
| RSHPPPPVSRSP | 0.651 ± 0.045 |
| PLPPSPLESVDT | 0.637 ± 0.027 |
| ISYYDVYLSFLF | 0.745 ± 0.13 |
| PCTGSKRRSLKS | 0.717 ± 0.055 |
| EHKSPYGTLRFP | 0.777 ± 0.11 |
| AWGPGRGGGGDA | 0.677 ± 0.01 |
| FDRQQDLTGMEM | 0.769 ± 0.078 |
| KYNKSRRGKIKT | 0.697 ± 0.062 |
| CGKPRIHEGRLM | 0.691 ± 0.02 |
| FSLPRHFRLYRR | 0.713 ± 0.036 |
| LPPLPPPPPLPL | 0.688 ± 0.11 |
| ELLASVSVSSRF | 0.6276 ± 0.0044 |
